Where a chain is given by its changes, count along the chain named. In names and notes the source's numbering stands.
T1: YojK (Bacillus subtilis, UniProt O31853)
T1 construct: codon-optimized synthetic gene in pET-21b(+), E. coli BL21(DE3), Ni-NTA and Superdex 200; M1-M405 described; two monomers per asymmetric unit
T1 sequence (O31853 1-405): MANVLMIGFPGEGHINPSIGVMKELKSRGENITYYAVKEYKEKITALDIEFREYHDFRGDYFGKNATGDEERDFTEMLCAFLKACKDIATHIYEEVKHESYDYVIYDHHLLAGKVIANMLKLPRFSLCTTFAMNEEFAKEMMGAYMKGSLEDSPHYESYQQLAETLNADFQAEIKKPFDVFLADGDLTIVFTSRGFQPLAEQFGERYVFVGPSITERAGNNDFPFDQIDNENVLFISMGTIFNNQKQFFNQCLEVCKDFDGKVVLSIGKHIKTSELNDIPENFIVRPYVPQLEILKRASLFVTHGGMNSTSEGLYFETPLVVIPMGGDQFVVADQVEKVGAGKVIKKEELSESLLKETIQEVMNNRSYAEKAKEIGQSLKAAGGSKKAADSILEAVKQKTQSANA

B1: YojK (Bacillus subtilis subsp. subtilis str. 168) (protein)
chain: T1 sequence (O31853 1-405)
B2: YojK (Bacillus subtilis subsp. subtilis str. 168; G327N) (protein)
chain: T1 sequence (O31853 1-405) with G327N
B3: YojK (Bacillus subtilis subsp. subtilis str. 168; G327N/I241T) (protein)
chain: T1 sequence (O31853 1-405) with I241T, G327N
B4: YojK (Bacillus subtilis subsp. subtilis str. 168; I241T) (protein)
chain: T1 sequence (O31853 1-405) with I241T
B5: YojK (Bacillus subtilis subsp. subtilis str. 168; G326F/I241T) (protein)
chain: T1 sequence (O31853 1-405) with I241T, G326F
B6: YojK (Bacillus subtilis subsp. subtilis str. 168; G326F) (protein)
chain: T1 sequence (O31853 1-405) with G326F

substrate: C=C1C[C@@]23CC[C@H]4[C@@](C)(CCC[C@@]4(C)C(=O)O[C@@H]4O[C@H](CO)[C@@H](O)[C@H](O)[C@H]4O)[C@@H]2CC[C@]1(O[C@@H]1O[C@H](CO)[C@@H](O)[C@H](O[C@@H]2O[C@H](CO)[C@@H](O)[C@H](O)[C@H]2O)[C@H]1O[C@@H]1O[C@H](CO)[C@@H](O)[C@H](O)[C@H]1O)C3; assay: purified protein; settings: 5 mM UDPG, 10 mM MnCl2, 50 mM Tris-HCl pH 8.0, 35°C, 20 min, Reb A 0.05-0.7 mM

B1 and B2 are within 1.5-fold of each other in Km: 210.52 ± 11.70 µM for the first, 176.23 ± 10.62 µM for the second.

B3 and B4 are within error of each other in Km: 193.07 ± 7.30 µM for the first, 197.74 ± 9.25 µM for the second.

B5 and B6 are within 1.5-fold of each other in Km: 347.63 ± 24.23 µM for the first, 290.16 ± 8.34 µM for the second.

First: B1
Second: B2
The kcat of the first is 4.7-fold lower: 0.018 s⁻¹ for the first, 0.0837 s⁻¹ for the second.

Compared with B3, B4 is 8-fold lower in kcat: 0.179 s⁻¹ for the first, 0.0223 s⁻¹ for the second.

First: B5
Second: B6
The kcat of the first is 1.7-fold higher: 0.258 s⁻¹ for the first, 0.154 s⁻¹ for the second.

Going from B1 to B2, the kcat/Km rises from 85.5 M⁻¹ s⁻¹ to 475 M⁻¹ s⁻¹ (5.6-fold).

Compared with B3, B4 is 8.2-fold lower in kcat/Km: 929 M⁻¹ s⁻¹ for the first, 113 M⁻¹ s⁻¹ for the second.

B5 and B6 are within 1.5-fold of each other in kcat/Km: 741 M⁻¹ s⁻¹ for the first, 528 M⁻¹ s⁻¹ for the second.

molecular target: T1, YojK; assay: X-ray crystal structure, […] Å; assay type: binding; settings: co-crystallised with 5 mM UDP, pH 8.0, 18°C; sugar donor site

For O=c1ccn([C@@H]2O[C@H](COP(=O)(O)OP(=O)(O)O)[C@@H](O)[C@H]2O)c(=O)[nH]1 [UDP], the “X-ray crystal structure, 1.90 Å” value was “we solved the crystal structure of YojK in complex with uridine diphosphate (UDP)”.

Source: publication PMC9452701, “Highly efficient production of rebaudioside D enabled by structure-guided engineering of bacterial glycosyltransferase YojK” (Frontiers in Bioengineering and Biotechnology, 2022)
